In publication PMC8632923:

Legend:
Conditions in all cases: reference: wild type; sites Y38
[1] = biological target: Drp1 (UniProt O00429); assay: co-IP, immunoblot
[2] = biological target: Drp1 (UniProt O00429); assay: Flag-bead Fis1 pull-down of recombinant Drp1
[3] = biological target: Drp1 (UniProt O00429); assay: anti-Flag IP of Fis1-Flag, Drp1 blot

binding against the reference [1]: weaker | binding against the reference [2]: weaker | binding against the reference [3]: weaker
Substance: Fis1 (from UniProt Q9Y3D6) Y38F
